Data from patent US20180298070A1, “PEPTIDE COMPOUND” (Takeda Pharmaceutical Company Limited, published 2018).
Non-standard residues stand in square brackets, D forms with d. Groups on a side chain read outwards from the residue. Primed or numbered codes have the meaning given here. No end group written: not given here. *: point of attachment. C20 diacid = O=C(O)CCCCCCCCCCCCCCCCCCC(=O)*; Iva = CC[C@](C)(N)C(=O)O; Aib = CC(C)(N)C(=O)O

What was measured:
[1] = molecular target: T1, human GIPR (human), P48546; assay: [125I]GIP competition, human GIPR VLP
T1 chain: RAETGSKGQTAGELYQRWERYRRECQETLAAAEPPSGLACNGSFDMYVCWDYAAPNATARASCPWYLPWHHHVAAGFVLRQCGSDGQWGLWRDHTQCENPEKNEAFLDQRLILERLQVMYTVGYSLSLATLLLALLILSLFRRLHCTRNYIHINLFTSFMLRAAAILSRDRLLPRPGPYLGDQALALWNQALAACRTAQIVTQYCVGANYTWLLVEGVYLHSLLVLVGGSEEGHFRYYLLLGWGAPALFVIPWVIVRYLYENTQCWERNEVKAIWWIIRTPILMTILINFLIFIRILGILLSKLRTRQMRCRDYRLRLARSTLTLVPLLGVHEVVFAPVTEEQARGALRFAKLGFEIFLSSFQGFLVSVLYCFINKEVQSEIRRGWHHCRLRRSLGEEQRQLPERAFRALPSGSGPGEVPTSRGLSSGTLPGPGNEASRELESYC

[2] = molecular target: T2, human GLP-1R (human), P43220
T2 chain: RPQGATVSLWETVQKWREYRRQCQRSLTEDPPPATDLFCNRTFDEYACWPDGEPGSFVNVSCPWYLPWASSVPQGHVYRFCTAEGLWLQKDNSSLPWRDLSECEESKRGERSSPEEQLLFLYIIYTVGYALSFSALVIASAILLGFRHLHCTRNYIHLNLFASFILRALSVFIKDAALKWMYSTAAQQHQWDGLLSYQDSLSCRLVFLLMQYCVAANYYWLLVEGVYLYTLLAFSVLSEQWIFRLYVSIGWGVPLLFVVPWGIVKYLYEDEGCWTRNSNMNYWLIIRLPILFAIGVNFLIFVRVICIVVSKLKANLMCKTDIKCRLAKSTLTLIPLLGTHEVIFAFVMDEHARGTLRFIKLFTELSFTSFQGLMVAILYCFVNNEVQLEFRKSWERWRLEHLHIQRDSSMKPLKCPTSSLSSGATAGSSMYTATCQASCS

[3] = molecular target: T1, human GIPR (human), P48546
human GLP-1R = human GLP-1R (human, UniProt P43220); assay: cell-based or functional assay
human GIPR [4] = molecular target: T3, human GIPR (human, UniProt P48546); assay: cell-based or functional assay
T3 sequence: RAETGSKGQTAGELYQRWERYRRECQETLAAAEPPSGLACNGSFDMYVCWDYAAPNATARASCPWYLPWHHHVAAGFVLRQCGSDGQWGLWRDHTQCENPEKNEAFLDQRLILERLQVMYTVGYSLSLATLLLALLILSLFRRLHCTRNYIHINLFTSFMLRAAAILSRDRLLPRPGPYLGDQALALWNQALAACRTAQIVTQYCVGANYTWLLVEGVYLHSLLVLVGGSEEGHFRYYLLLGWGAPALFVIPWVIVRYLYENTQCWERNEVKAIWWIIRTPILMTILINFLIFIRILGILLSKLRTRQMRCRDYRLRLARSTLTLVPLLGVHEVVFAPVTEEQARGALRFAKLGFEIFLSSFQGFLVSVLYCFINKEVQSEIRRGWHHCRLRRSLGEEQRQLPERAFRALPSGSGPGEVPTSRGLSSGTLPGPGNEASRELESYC

human GIPR [5] = molecular target: T4, human GIPR (human, UniProt P48546); assay: [125I]GIP displacement, hGIPR VLP
T4 sequence: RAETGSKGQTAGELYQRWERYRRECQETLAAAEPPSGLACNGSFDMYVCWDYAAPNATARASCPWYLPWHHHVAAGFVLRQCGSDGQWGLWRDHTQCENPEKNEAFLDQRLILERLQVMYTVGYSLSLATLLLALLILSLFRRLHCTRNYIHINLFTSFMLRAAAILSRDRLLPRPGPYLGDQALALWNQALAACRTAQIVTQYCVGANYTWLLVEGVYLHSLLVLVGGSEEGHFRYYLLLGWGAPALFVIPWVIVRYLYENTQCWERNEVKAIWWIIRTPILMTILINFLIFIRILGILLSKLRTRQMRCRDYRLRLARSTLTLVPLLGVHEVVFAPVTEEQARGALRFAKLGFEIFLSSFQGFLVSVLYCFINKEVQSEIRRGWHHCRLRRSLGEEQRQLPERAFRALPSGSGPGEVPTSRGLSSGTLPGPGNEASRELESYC
Description: (§1) For the measurement of the binding activity to GIPR, [¹²⁵I]GIP (PerkinElmer, Inc.) in a final concentration of 100 pM and a test compound in a specified concentration were mixed to GIPR_VLP in an assay buffer (50 mM HEPES (pH 7.4, WAKO 342-01375), 5 mM EGTA (WAKO 346-01312), 5 mM MgCl₂ (WAKO 136-03995), 0.1% BSA (Merckmillipore 81-066-04) and 0.005% Tween 20 (BioRad 170-6531)) and reacted at room temperature for 2 hours. VLP to which [¹²⁵I ]GIP was bound was trapped in a GF/C glass fiber filter 96-well plate (PerkinElmer 6005274) using a cell harvester and washed with an assay buffer. The GF/C glass fiber filter 96-well plate in which VLP was trapped was dried at 42° C. overnight. Thereafter, MicroScint-O (PerkinElmer 6013611) was added to the GF/C glass fiber filter 96-well plate sealed using a backseal and the plate was sealed using a topseal. The radioactivity of each well was eventually measured using Topcount (PerkinElmer) and the binding activity of the test compound to GIPR was calculated when the [¹²⁵I]GIP binding activity in the presence of GIP in a final concentration of […] was 100% and the [¹²⁵I]GIP binding activity of the wells to which DMSO was added was 0%.

human GIPR [6] = molecular target: T5, human GIPR (human, UniProt P48546); assay: [125I]GIP competition, human GIPR VLP
T5 sequence: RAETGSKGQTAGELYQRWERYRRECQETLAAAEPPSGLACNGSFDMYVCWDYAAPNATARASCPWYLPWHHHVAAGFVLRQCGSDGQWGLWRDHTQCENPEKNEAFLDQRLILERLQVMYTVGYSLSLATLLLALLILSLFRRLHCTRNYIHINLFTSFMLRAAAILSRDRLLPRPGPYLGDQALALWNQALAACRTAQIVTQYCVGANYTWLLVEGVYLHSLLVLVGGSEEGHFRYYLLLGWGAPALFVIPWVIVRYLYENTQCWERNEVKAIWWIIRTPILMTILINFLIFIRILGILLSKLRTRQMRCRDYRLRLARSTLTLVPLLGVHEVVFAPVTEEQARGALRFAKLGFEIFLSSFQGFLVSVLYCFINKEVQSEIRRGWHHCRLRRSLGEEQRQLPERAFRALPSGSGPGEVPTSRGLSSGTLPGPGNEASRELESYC
Description: as §1

## Y[Aib]EGTFISDYSIALDRK([PEG(2)-C20 diacid])AQQNFVNW[Iva]LAQRPSSGAPPPS (not fully specified (C-terminus); ends and bridges not checked) [Compound 408]
[1]
  IC50: 84 nM
[2]
  Agonist activity (EC50, M): > 1e-06 M
[3]
  Agonist activity (EC50, M): 4.8e-10 M

## Y[Aib]EGTFISDYSIALDRK([PEG(2)-C20 diacid])AQQNFVNW[Iva]LAQR (ends and bridges not checked) [Compound 391]
[1]
  IC50: 34 nM
[2]
  Agonist activity (EC50, M): > 1e-06 M
[3]
  Agonist activity (EC50, M): 1.1e-10 M

B1: Compound 307 (peptide)
peptide: YXEGTXISDYSIXLDRXAQXNFVNWXLAQRPSSGAPPPS
modifications: not fully specified; MeTyr at 1; Aib at 2, 13, 20; Iva at 6, 26; Lys(Eda-PEG(3)-PEG(3)-) at 17; C-terminal amide (-NH2)
Human GLP-1R
  Agonist activity (EC50, M): > 1e-06 M
Human GIPR [4]
  Agonist activity (EC50, M): 4e-11 M

B2: Compound 307 (peptide)
peptide: YXEGTXISDYSIXLDRXAQXNFVNWXLAQRPSSGAPPPS
modifications: not fully specified; N-methyl on Tyr 1; Aib at 2, 13, 20; Iva at 6, 26; Lys(Eda-PEG(3)-PEG(3)-) at 17; C-terminal amide
Human GIPR [5]
  IC50: 5 nM

B3: Compound 349 (peptide)
peptide: YXEGTXISDYSIXLDRXAQXNFVNWXLAQRPSSGAPPPS
modifications: MeTyr at 1; Aib at 2, 13, 20; Iva at 6, 26; Lys(Oda-GGGGG-) at 17; C-terminal amide (-NH2)
Human GLP-1R
  Agonist activity (EC50, M): > 1e-06 M

B4: Compound 503 (peptide)
peptide: YXEGTXISDYSIXLDRXHQXNFVNWXLAQRPSSGAPPPS
modifications: N-terminal methyl (Me-Tyr); Aib at 2, 13, 20; Iva at 6, 26; Lys(Heda-GGGGGG-) at 17; C-terminal NH2
Human GIPR [6]
  IC50: 8 nM

B5: Compound 521 (peptide)
peptide: YXEGTXISDYSIXXDRXHQXNFVNWXLAQRPSSGAPPPS
modifications: N-terminal methyl (Me-Tyr); Aib at 2, 13, 17, 20; Iva at 6, 26; Lys(Eda-GGGGGG-) at 14; C-terminal NH2
Human GIPR [6]
  IC50: 20 nM

B6: Compound 342 (peptide)
peptide: YXEGTXISDYSIXXDRXAQXNFVNWXLAQRPSSGAPPPS
modifications: Me-Tyr at 1; Aib at 2, 13, 17, 20; Iva at 6, 26; Lys(Eda-GGGGGG-) at 14; C-terminal amide (-NH2) (as printed for SEQ ID NO: 355 in the 1st table)
Human GLP-1R
  Agonist activity (EC50, M): > 1e-06 M

B7: Compound 341 (peptide)
peptide: YXEGTXISDYSIXXDRXAQXNFVNWXLAQRPSSGAPPPS
modifications: MeTyr at 1; Aib at 2, 13, 17, 20; Iva at 6, 26; Lys(Eda-GGGGG-) at 14; C-terminal amide (-NH2)
Human GLP-1R
  Agonist activity (EC50, M): > 1e-06 M

B8: Compound 496 (peptide)
peptide: YXEGTXISDYSIXLDRXAQXNFVNWXLAQRPSSGAPPPS
modifications: N-terminal methyl (Me-Tyr); Aib at 2, 13, 20; Iva at 6, 26; Lys(Oda-GGGGGG-) at 17; C-terminal NH2
Human GIPR [6]
  IC50: 10 nM

B9: Compound 484 (peptide)
peptide: YXEGTXISDYSIXXDRXHQXNFVNWXLAQRPSSGAPPPS
modifications: N-terminal methyl (Me-Tyr); Aib at 2, 13, 17, 20; Iva at 6, 26; Lys(Oda-GGGGGG-) at 14; C-terminal NH2
Human GIPR [6]
  IC50: 10 nM

## Y[Aib]EGTFISDYSIALDRK([PEG(2)-C20 diacid])AQQNFVNW[Iva]LAQRPSSGAPPPS (not fully specified (C-terminus); ends and bridges not checked) [Compound 404]
[1]
  IC50: 24 nM
[2]
  Agonist activity (EC50, M): > 1e-06 M
[3]
  Agonist activity (EC50, M): 1.1e-10 M
